Data taken from patent publication US20150290319A1.

How the values were obtained:
[1] = target: MDX1388
[2] = target: Clostridium difficile toxin B (whole toxin B) (Clostridium difficile)
[3] = target: Clostridium difficile toxin B (whole toxin B) (Clostridium difficile); experiment: cell-based or functional assay

| Substance | IC50 (read off the curve) [1] | Kd [2] | koff [2] | kon [2] | Mean EC50, neutralization of TcdB on HT-29 cells (xCELLigence) [3] |
| --- | --- | --- | --- | --- | --- |
| Clostridium difficile toxin B (whole toxin B) | 0.05 µg/mL |  |  |  |  |
| MDX1388 (antibody) |  | 3.84 nM | 0.000139 s⁻¹ | 36200 M⁻¹ s⁻¹ | 125 µg/mL |
